Experiments:
HLA-B*54:01 = assay: IEDB peptide-MHC binding, purified MHC/competitive/radioactivity; filed as Kd, often an IC50 or EC50 that approximates it; ≥ and ≤ were set here for values at or beyond the usual limits of such assays
HLA-B*51:01 = assay: as above
HLA-B*35:01 = assay: as above
HLA-B*53:01 = assay: as above
HLA-B*07:02 = assay: as above
HLA-B*57:01 = assay: IEDB peptide-MHC binding, purified MHC/direct/fluorescence; filed as Kd, often an IC50 or EC50 that approximates it; ≥ and ≤ were set here for values at or beyond the usual limits of such assays; conditions: source organism: Burkholderia lata
HLA-B*58:01 = assay: as above; conditions: source organism: Burkholderia lata
HLA-A*02:01 [1] = assay: IEDB peptide-MHC binding, purified MHC/competitive/fluorescence; filed as Kd, often an IC50 or EC50 that approximates it; ≥ and ≤ were set here for values at or beyond the usual limits of such assays
HLA-A*24:02 = assay: IEDB peptide-MHC binding, purified MHC/competitive/fluorescence; ≥ and ≤ were set here for values at or beyond the usual limits of such assays
HLA-A*02:01 [2] = assay: as above
HLA-A*30:01 = assay: IEDB peptide-MHC binding, purified MHC/competitive/radioactivity; filed as Kd, often an IC50 or EC50 that approximates it; ≥ and ≤ were set here for values at or beyond the usual limits of such assays
HLA-A*68:01 = assay: as above; conditions: source organism: Vaccinia virus WR
HLA-A*31:01 = assay: as above; conditions: source organism: Vaccinia virus WR
HLA-A*33:01 = assay: as above; conditions: source organism: Vaccinia virus WR
HLA-A*03:01 = assay: as above; conditions: source organism: Vaccinia virus WR
HLA-A*11:01 = assay: as above; conditions: source organism: Vaccinia virus WR
HLA-A*02:06 = assay: as above; conditions: source organism: Vaccinia virus WR
HLA-A*02:03 = assay: as above; conditions: source organism: Vaccinia virus WR
HLA-A*02:02 = assay: as above; conditions: source organism: Vaccinia virus WR
[3] = source organism: Human alphaherpesvirus 2
[4] = source organism: Vaccinia virus WR
[5] = source organism: Vaccinia virus Copenhagen
[6] = source organism: Zaire ebolavirus
[7] = source organism: Sudan ebolavirus
[8] = source organism: SARS coronavirus Tor2
[9] = source organism: Triticum aestivum
[10] = source organism: Lassa virus Josiah

In the case of GPHETITAL, the Kd (HLA-B*54:01; [3]) is reported as 4850 nM, the Kd (HLA-B*51:01; [3]) is reported as no less than 77.5 µM and the Kd (HLA-B*35:01; [3]) is reported as 797 nM. For the same sequence, the Kd (HLA-B*53:01; [3]) was 3350 nM and the Kd (HLA-B*07:02; [3]) was 1.4 nM.
For ETLWSPWKL, the Kd (HLA-B*57:01) was no less than 20 µM and the Kd (HLA-B*58:01) was 1410 nM.
HPFIYVIRHV was tested, and the Kd (HLA-B*54:01; [4]) was 2.71 nM, the Kd (HLA-B*51:01; [4]) was 1.02 µM and the Kd (HLA-B*35:01; [4]) was 7040 nM. The Kd (HLA-B*53:01; [4]) was 2010 nM and the Kd (HLA-B*07:02; [4]) was 11700 nM.
YLSDSAINI gave a Kd (HLA-A*02:01 [1]; [5]) of 1.3 nM.
With QGLIQYPTA the IC50 (HLA-A*24:02; [6]) was 12.6 µM and the IC50 (HLA-A*02:01 [2]; [6]) was 46.1 µM.
TPNYMKLLV gave a Kd (HLA-B*54:01; [4]) of 30.7 nM, a Kd (HLA-B*51:01; [4]) of no less than 77.5 µM and a Kd (HLA-B*35:01; [4]) of 8.41 nM. It also gave a Kd (HLA-B*07:02; [4]) of 51.3 nM.
Work on NSRSTSLSV yielded a Kd (HLA-A*30:01; source organism: Dengue virus 2 Jamaica/1409/1983) of 14.9 nM.
KGRRQYFYG was tested, and the Kd (HLA-A*30:01; [4]) was 2.85 nM.
Work on KTSFHIIFL yielded a Kd (HLA-A*30:01; [4]) of 25 nM.
Sequence VPVLEKKVCA has a Kd (HLA-B*54:01; [4]) of 256 nM, a Kd (HLA-B*51:01; [4]) of no less than 29.1 µM and a Kd (HLA-B*35:01; [4]) of 7680 nM. The Kd (HLA-B*53:01; [4]) was no less than 26400 nM and the Kd (HLA-B*07:02; [4]) was 3000 nM.
For ITTAVKTVL, the IC50 (HLA-A*24:02; [7]) was 37.4 µM and the IC50 (HLA-A*02:01 [2]; [7]) was 55.3 µM.
For NPKASTISWM, the Kd (HLA-B*54:01; [4]) was no less than 35900 nM, the Kd (HLA-B*51:01; [4]) was no less than 69.6 µM and the Kd (HLA-B*35:01; [4]) was 7660 nM. For the same sequence, the Kd (HLA-B*53:01; [4]) was 8150 nM and the Kd (HLA-B*07:02; [4]) was 94.7 nM.
VPDADPPIPY was tested, and the Kd (HLA-B*54:01; [4]) was 19300 nM, the Kd (HLA-B*51:01; [4]) was no less than 69.6 µM and the Kd (HLA-B*35:01; [4]) was 142 nM. The Kd (HLA-B*53:01; [4]) was 1650 nM and the Kd (HLA-B*07:02; [4]) was 2020 nM.
RPSIGNVFKA showed a Kd (HLA-B*54:01; [4]) of 644 nM, a Kd (HLA-B*51:01; [4]) of no less than 69.6 µM and a Kd (HLA-B*35:01; [4]) of no less than 69900 nM. The Kd (HLA-B*53:01; [4]) was no less than 36400 nM and the Kd (HLA-B*07:02; [4]) was 3830 nM.
SPMLYQLLEA showed a Kd (HLA-B*54:01; [4]) of 8.77 nM, a Kd (HLA-B*51:01; [4]) of no less than 69.6 µM and a Kd (HLA-B*35:01; [4]) of 143 nM. It also gave a Kd (HLA-B*53:01; [4]) of 228 nM and a Kd (HLA-B*07:02; [4]) of 94 nM.
RDGVKRLEE showed an IC50 (HLA-A*24:02; [6]) of no less than 89.8 µM.
KRTLTPQPME showed a Kd (HLA-A*30:01; source organism: Dengue virus 3 Martinique/1243/1999) of 15100 nM.
In the case of ITFLRVLSIP, the Kd (HLA-A*30:01; source organism: Dengue virus 4 Philippines/H241/1956) is reported as 828 nM.
In the case of LPFYSNVTGF, the Kd (HLA-B*54:01; [8]) is reported as 132 nM, the Kd (HLA-B*51:01; [8]) is reported as 0.861 µM and the Kd (HLA-B*35:01; [8]) is reported as 11.5 nM. The Kd (HLA-B*53:01; [8]) was 79.8 nM and the Kd (HLA-B*07:02; [8]) was 563 nM.
With MSVISNPSK the Kd (HLA-A*30:01; [4]) was 19.7 nM.
Work on KLIIDREVV yielded a Kd (HLA-A*02:01 [1]; [4]) of 1790 nM and an IC50 (HLA-A*24:02; [5]) of no less than 137 µM.
For QVHAEQGLI, the IC50 (HLA-A*24:02; [6]) was 47 µM.
LVSIPRTNIV was tested, and the Kd (HLA-A*02:01 [1]; source organism: Variola virus) was 279 nM.
In the case of TFRERYSYK, the Kd (HLA-A*30:01; [4]) is reported as 0.885 nM, the Kd (HLA-A*68:01) is reported as 127 nM and the Kd (HLA-A*31:01) is reported as 14.6 nM. For the same sequence, the Kd (HLA-A*33:01) was 28.8 nM, the Kd (HLA-A*03:01) was 73.6 nM and the Kd (HLA-A*11:01) was 43.7 nM.
Work on SPYNSQNAVA yielded a Kd (HLA-B*54:01; [8]) of 1.4 nM, a Kd (HLA-B*51:01; [8]) of 3.47 µM and a Kd (HLA-B*35:01; [8]) of 8240 nM. It also gave a Kd (HLA-B*53:01; [8]) of 15900 nM and a Kd (HLA-B*07:02; [8]) of 59.4 nM.
Sequence HIKTIAVSV has a Kd (HLA-A*02:06) of 1550 nM, a Kd (HLA-A*30:01; [4]) of 66.8 nM and a Kd (HLA-A*02:03) of 9.6 nM. It also gave a Kd (HLA-A*02:02) of 3.08 µM.
Work on YLLEMLWRL yielded a Kd (HLA-A*02:01 [1]; source organism: Human herpesvirus 4 strain B95-8) of 4.5 nM.
In the case of AAMYQYIFL, the Kd (HLA-A*30:01; [4]) is reported as 7.53 nM.
SPMVIATTDM showed a Kd (HLA-B*54:01; [4]) of 1040 nM, a Kd (HLA-B*51:01; [4]) of no less than 52.7 µM and a Kd (HLA-B*35:01; [4]) of 66.6 nM. It also gave a Kd (HLA-B*53:01; [4]) of 747 nM and a Kd (HLA-B*07:02; [4]) of 21.6 nM.
With CPKIFNNNY the Kd (HLA-B*54:01; [4]) was 13000 nM, the Kd (HLA-B*51:01; [4]) was no less than 77.5 µM and the Kd (HLA-B*35:01; [4]) was 160 nM. It also gave a Kd (HLA-B*53:01; [4]) of 331 nM and a Kd (HLA-B*07:02; [4]) of no less than 72900 nM.
QPQQLPQFEEI gave a Kd (HLA-B*54:01; [9]) of no less than 63700 nM, a Kd (HLA-B*51:01; [9]) of 14.1 µM and a Kd (HLA-B*35:01; [9]) of no less than 63700 nM. The Kd (HLA-B*53:01; [9]) was no less than 63700 nM and the Kd (HLA-B*07:02; [9]) was no less than 64000 nM.
WPYIASRTSI was tested, and the Kd (HLA-B*54:01; [10]) was 714 nM, the Kd (HLA-B*51:01; [10]) was 0.0458 µM and the Kd (HLA-B*35:01; [10]) was no less than 72000 nM. It also gave a Kd (HLA-B*53:01; [10]) of no less than 23200 nM and a Kd (HLA-B*07:02; [10]) of 55.6 nM.
